Assays:
[1] = biological target: T1, FC5DIE3IR recombinant protein; assay: SPR (Biacore T200), single cycle kinetics, Fc-captured mAb, FC5DIE3IR flowed (320 nM-20 nM), 1:1 model, 25 C
T1 construct: Made in CHO-3E7 cells; also called FC5DIE31R; FC5DIE3R
Experimental: (§1) HBS-EP running buffer used for SPR experiments. […] Test binding experiments of FC5 control and FC5DIE3IR involved flowing 1 μM concentrations of SEC-pure material over the mAb surface at a flow rate of 30 μl/min for 5 min. Surfaces could be regenerated using 10 mM glycine, pH 1.7, with a 120 sec pulse at 20 μl/min. All SPR experiments were evaluated with Biacore T200 Software v 3.0. […] Regeneration conditions were the same as above. Data were fit to a 1:1 binding model and analyzed using the Biacore T200 Software v3.0.

[2] = biological target: T1, FC5DIE3IR recombinant protein; assay: ELISA on coated FC5DIE3IR, serial dilutions of purified mAb, OD 405 nm; fit One site - Specific binding with Hill slope; apparent Kd in the unit of the concentration axis (nM), the table itself prints no unit
Experimental: (§2) Screening. Hybridoma supernatants were screened by ELISA to detect specific binders. To this end, 96-well half-area plates (Costar #3690) were coated with 25 μl of FC5DIE3IR or FC5-VHH or FC5-hFc-1X0 at 5 μg/ml in PBS and incubated overnight at 4° C. Microplates were washed 3 times with PBS, blocked with PBS-BSA 1%, and 25 μl of hybridoma supernatants were added and incubated at 37° C., 5% CO₂ for 2 hours. […] After 4 washes with PBS-Tween 20 0.05%, 25 μl of a 1 mg/ml pNPP substrate solution was added and further incubated for one hour at 37° C.
(§3) Evaluation of apparent affinity in ELISA. Purified antibodies were assessed for their binding activity by ELISA in a dose-dependent binding curve. Serial 1/3 dilutions of purified mAbs starting at 120 nM were applied onto wells and ELISA was performed as described above (screening section). The data were analyzed with GraphPad Prism software using one-site specific binding-with Hill slope non-linear regression curve fit model to determine Bₘₐₓ (maximum specific binding) and Kdₐₚₚ (concentration needed to achieve a half-maximum binding at equilibrium) for each mAb tested.

[3] = biological target: T1, FC5DIE3IR recombinant protein; assay: ELISA, hybridoma supernatant on coated purified FC5DIE3IR
Experimental: as §2

human Nav1.7 polypeptide [4] = biological target: T2, human Nav1.7 polypeptide (human, UniProt Q15858 1-1988); assay: cell ELISA, hybridoma supernatant on live CHO cells expressing human Nav1.7, duplicate 2
T2 construct: also called hNav1.7; SCN9A
Experimental: (§4) Cell-ELISA. Sterile 96-well plates (Costar #3595) were pre-treated with 50 μl/well of branched polyethyleneimine (PEI, Sigma Cat #408727) at 25 μg/ml in PBS for 30 min at room temperature. PEI was removed and CHO-3E7 or hNAᵥ1.7-CHO (ChanTest cat #CT4003) were seeded at 6×10⁵ cells per well in FreeStyle F17 Expression Medium (Gibco Cat #A1383501) and incubated overnight at 37° C., 5% CO₂. Microplates were blocked with Starting block (Thermofisher Cat #37538) for 30 min at room temperature, and 50 μl of hybridoma supernatants were added and incubated at 4° C. for 3 h. […] After 10 washes with PBS, 50 μl of TMB substrate solution (Pierce Cat #34021) was added and further incubated for 60 min at room temperature.

human Nav1.7 polypeptide [5] = biological target: T2, human Nav1.7 polypeptide; assay: cell ELISA, hybridoma supernatant on live CHO cells expressing human Nav1.7, duplicate 1
Experimental: as §4

VHH FC5 [6] = biological target: T3, VHH FC5; assay: ELISA, hybridoma supernatant on coated purified FC5-VHH
T3 construct: put together from its FR and CDR entries; also called FC5-VHH; FC5 control
T3 sequence (VHH, as listed by the source): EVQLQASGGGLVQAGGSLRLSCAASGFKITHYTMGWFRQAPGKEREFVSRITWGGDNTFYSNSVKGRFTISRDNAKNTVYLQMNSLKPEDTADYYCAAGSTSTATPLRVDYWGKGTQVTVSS
Experimental: as §2

[7] = biological target: T1, FC5DIE3IR recombinant protein; assay: SPR (Biacore T200), ligand 3A8 captured by anti-mouse IgG, FC5DIE3IR flowed at 1 µM, 25 °C, 1:1 binding model
Experimental: as §1

VHH FC5 [8] = biological target: T3, VHH FC5; assay: SPR (Biacore T200), ligand 3A8 captured by anti-mouse IgG, VHH FC5 flowed at 1 µM, 25 °C, 1:1 binding model; the fit is printed under a flat sensorgram and the filing says that 3A8 did not bind FC5
Experimental: as §1

human Nav1.7 polypeptide [9] = biological target: T2, human Nav1.7 polypeptide; assay: cell-based or functional assay
peptide #40a (40 aa) = biological target: T4, peptide #40a (40 aa) (human); assay: ELISA on coated peptide or FC5DIE3IR, mAb detected with HRP anti-mouse Fc, Abs 450nm
T4 construct: Custom-synthesized (Biomatik); also called pep #40a; P40a
T4 peptide: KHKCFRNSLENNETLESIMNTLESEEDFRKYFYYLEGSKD
Experimental: (§5) The peptides were custom-synthesized (Biomatik) and tested for antibody binding by ELISA. […] The wells were blocked with 1% BSA in TBS-T for 30 min and then incubated with 1:1000 dilution of anti-hNaᵥ1.7 mAb at room temperature (RT) for one hr.

peptide #3 (30 aa) = biological target: T5, peptide #3 (30 aa) (human); assay: as above
T5 construct: Custom-synthesized (Biomatik); also called pep #3; P3
T5 sequence (peptide, as listed by the source): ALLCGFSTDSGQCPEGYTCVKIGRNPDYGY
Experimental: as §5

peptide #2 (30 aa) = biological target: T6, peptide #2 (30 aa) (human); assay: as above
T6 construct: Custom-synthesized (Biomatik); also called pep #2; P2
T6 peptide: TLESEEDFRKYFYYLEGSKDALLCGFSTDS
Experimental: as §5

VHH FC5 [10] = biological target: T3, VHH FC5; assay: SPR (Biacore T200), ligand 3A8 captured by anti-mouse IgG, VHH FC5 flowed at 1 µM, 25 °C, 1:1 binding model; the label reads KD: without a unit, M follows from kd/ka; the fit is printed under a flat sensorgram and the filing says that 3A8 did not bind FC5
Experimental: as §1

[11] = biological target: T1, FC5DIE3IR recombinant protein; assay: SPR single cycle kinetics, ligand 3A8 Fc-captured, FC5DIE3IR flowed in five rising concentrations, 1:1 binding model
Experimental: as §1

[12] = biological target: T1, FC5DIE3IR recombinant protein; assay: ELISA on coated FC5DIE3IR, serial dilutions of purified mAb; fit One site - Specific binding with Hill slope
Experimental: as §2, §3

peptide #2a (20 aa) = biological target: T7, peptide #2a (20 aa) (human); assay: ELISA on coated P2a, mAb at the dilutions 1:1000, 1:5000 and 1:10000, Abs 450nm
T7 construct: Custom-synthesized (Biomatik); also called pep #2a; P2a
T7 peptide: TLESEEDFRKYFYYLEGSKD
Experimental: as §5

[13] = biological target: T1, FC5DIE3IR recombinant protein; assay: apparent KD (Kdapp), ELISA dose curve of purified mAb on coated FC5DIE3IR; 3A8 clone (IgG2a), ELISA apparent KD
Experimental: as §2, §3

human Nav1.7 polypeptide [14] = biological target: T2, human Nav1.7 polypeptide; assay: cell-based or functional assay; remark: listed apart in the source
[15] = biological target: T1, FC5DIE3IR recombinant protein; assay: ELISA dose curve of purified mAb on coated FC5DIE3IR
Experimental: as §2, §3

[16] = biological target: T1, FC5DIE3IR recombinant protein; assay: apparent KD (Kdapp), ELISA dose curve of purified mAb on coated FC5DIE3IR; 1G5 clone (IgG1), ELISA apparent KD
Experimental: as §2, §3

[17] = biological target: T1, FC5DIE3IR recombinant protein; assay: SPR, mAb 1G5 and FC5DIE3IR, 25 C
VHH FC5 [18] = biological target: T3, VHH FC5; assay: SPR, mAb 1G5 and FC5, 25 C

B1: anti-hNav1.7 mAb 3A8 (antibody, V domains shown)
VH: QVQLQQPGAELVKPGASVKLSCKASGYTFTNYWMHWVKQRPGQGLEWIGEINPSNGRANYNEKFKSKATLTVDKSSSTAYMQLSSLTSEDSAVYYCARSPYGYYDYWGQGTTLTVSS
VL: DVLMTQTPLSLPVSLGDQASISCRSSQSLLHSNGNTYFHWYLQKPGQSPKLLIYKVSNRFFGVPDRFSGSGSGTDFTLKISRVEAEDLGVYFCSQITHVPLTFGAGTKLELK
notes: also called F233-3A8
B1 was tested. Which Kd [1] did it give?
Its Kd is 36.7 nM.

And the koff [1]?
The koff was 0.000259 s⁻¹.

What about the kon [1] of the same binder?
Its kon is 7050 M⁻¹ s⁻¹.

And the Kd [2]?
The Kd was 1.84 nM.

And the “ELISA signal (OD 405 nm)” value [3]?
Its value is 0.995 OD 405 nm.

And the “cell ELISA signal (OD 450 nm)” value (human Nav1.7 polypeptide [4])?
Its value is 0.183 OD 450 nm.

And the “cell ELISA signal (OD 450 nm)” value (human Nav1.7 polypeptide [5])?
Its value is 0.102 OD 450 nm.

And the “ELISA signal (OD 405 nm)” value (VHH FC5 [6])?
Its value is 0.029 OD 405 nm.

And the Kd [7]?
Its Kd is 17.1 nM.

What about the koff [7] of the same binder?
The koff was 4.52e-05 s⁻¹.

What about the kon [7] of the same binder?
Its kon is 2640 M⁻¹ s⁻¹.

What about the koff (VHH FC5 [8]) of the same binder?
Its koff is 0.0138 s⁻¹.

And the kon (VHH FC5 [8])?
The kon was 28700 M⁻¹ s⁻¹.

What about the “Concentration response relationship (IC50), hNav1.7 currents, whole-cell patch clamp, hNav1.7-HEK293 cells, resting/closed state” value (human Nav1.7 polypeptide [9]) of the same binder?
Its value is 850 nM.

What about the “Efficacy (degree of maximum inhibition) %” value (human Nav1.7 polypeptide [9]) of the same binder?
Its value is 16%.

What about the “Reduction currents (%) at 0.5 µM” value (human Nav1.7 polypeptide [9]) of the same binder?
Its value is 3.6%.

What about the “Reduction currents (%) at 1 µM” value (human Nav1.7 polypeptide [9]) of the same binder?
Its value is 8.2%.

And the “Reduction currents (%) at 2 µM” value (human Nav1.7 polypeptide [9])?
The value was 16%.

And the “Reduction currents (%) at 3 µM” value (human Nav1.7 polypeptide [9])?
Its value is 15.4%.

And the “Time constant of the block of the hNav1.7 currents (1 µM)” value (human Nav1.7 polypeptide [9])?
The value was 184 s.

What about the “Time constant of the block of the hNav1.7 currents (2 µM)” value (human Nav1.7 polypeptide [9]) of the same binder?
The value was 105 s.

Does B1 bind (peptide #40a (40 aa))?
Result: binds

Does B1 bind (peptide #3 (30 aa))?
Result: no binding

Does B1 bind (peptide #2 (30 aa))?
Result: binds

What about the Kd (VHH FC5 [10]) of the same binder?
The Kd was 482 nM.

What about the Kd [11] of the same binder?
The Kd was 7.59 nM.

And the koff [11]?
The koff was 3.15e-05 s⁻¹.

What about the kon [11] of the same binder?
The kon was 4160 M⁻¹ s⁻¹.

And the Bmax [12]?
The Bmax was 2.15 OD405 nm.

Does B1 bind (peptide #2a (20 aa))?
Result: binds

And the Kd [13]?
Its Kd is 1.9 nM.

And the “concentration response relationship (IC50), hNav1.7 currents, whole-cell patch clamp, hNav1.7-HEK293 cells” value (human Nav1.7 polypeptide [14])?
Its value is 900 nM.

What about the “fold lower apparent KD than the 1G5 clone” value [15] of the same binder?
The value was roughly 2.5 fold.

B2: mAb 1G5 (antibody, V domains shown)
VH: QVQLQQPGAELVKPGASVKLSCKASGYTFTSYWINWVKQRPGQGLEWIGNIYPGNSNTNYNEKFKSKATLTVDKSSSTAYMQLSSLTSEDSAVYYCARRYYYDYDDAMDYWGQGTSVTVSS
VL: DIVLTQSPASLAVSLGQRATISCRASESVDSYGNGFMHWYQQKPGQPPKLLIYRASNLESGIPARVSGSGSRTDFTLTINPVEADDVATYYCQQSNEDPWTFGGGTKLEIK
notes: also called negative control
Which results are given for B2?
Kd [2]: 5.04 nM; ELISA signal (OD 405 nm) [3]: 1.14 OD 405 nm; cell ELISA signal (OD 450 nm) (human Nav1.7 polypeptide [4]): 0.225 OD 450 nm; cell ELISA signal (OD 450 nm) (human Nav1.7 polypeptide [5]): 0.172 OD 450 nm; ELISA signal (OD 405 nm) (VHH FC5 [6]): 0.096 OD 405 nm; Reduction currents (%) at 1 µM (human Nav1.7 polypeptide [9]): 0.77%; Bmax [12]: 0.635 OD405 nm; Kd [16]: 4.8 nM; Kd [17]: 186 nM; koff [17]: 0.0136 s⁻¹; kon [17]: 72900 M⁻¹ s⁻¹; Kd (VHH FC5 [18]): 58.8 nM; koff (VHH FC5 [18]): 0.017 s⁻¹; kon (VHH FC5 [18]): 289000 M⁻¹ s⁻¹

Reference: patent publication US20210206842A1 (NATIONAL RESEARCH COUNCIL OF CANADA, published 2021)
